Experimental findings from a protein production outcome set (Wang et al. 2014) are described below.
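Note: failed if final PepcDB status was selected cloned or expressed and not failed if soluble or beyond.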

A short description of the data set: label from the status in PepcDB records.
Turning to “MSSEKERKKKIFFQRILTVVFLGTFFYSVYELGDIFMDYYENRKVMAEAQNIYEKSPMEEQSQDGEVRKQFKALQQINQEIVGWITMDDTQINYPIVQAKDNDYYLFRNYKGEDMRAGSIFMDYRNDVKSQNRNTILYGHRMKDGSMFGSLKKMLDEEFFMSHRKLYYDTLFEGYDLEVFSVYTTTTDFYYIETDFSSDTEYTSFLEKIQEKSLYKTDTTVTAGDQIVTLSTCDYALDPEAGRLVVHAKLVKRQ”, the protein production result was “not failed”.

As for “MSSEMEPLLLAWSYFRRRKFQLCADLCTQMLEKSPYDQAAWILKARALTEMVYIDEIDVDQEGIAEMMLDENAIAQVPRPGTSLKLPGTNQTGGPSQAVRPITQAGRPITGFLRPSTQSGRPGTMEQAIRTPRTAYTARPITSSSGRFVRLGTASMLTSPDGPFINLSRLNLTKYSQKPKLAKALFEYIFHHENDVKTIHLEDVVLHLGIYPFLLRNKNHIEKNALDLAALSTEHSQYKDWWWKVQIGKCYYRLGMYREAEKQFKSALKQQEMVDTFLYLAKVYVSLDQPVTALNLFKQGLDKFPGEVTLLCGIARIYEEMNNMSSAAEYYKEVLKQDNTHVEAIACIGSNHFYSDQPEIALRFYRRLLQMGIYNGQLFNNLGLCCFYAQQYDMTLTSFERALSLAENEEEAADVWYNLGHVAVGIGDTNLAHQCFRLALVNNNNHAEAYNNLAVLEMRKGHVEQARALLQTASSLAPHMYEPHFNFATISDKIGDLQRSYVAAQKSEAAFPDHVDTQHLIKQLRQHFAML”, the protein production result is recorded as “failed”.

Take “MSSENDFVEFSSMFERIIQGRGDGLSRFLPVIVALAAREDDDDQGSTDQTTRRGDPLSPRFVMIGSRSGLDDFFSDGGKQGRSPALKSEVENMPRVVIGEDKEKYGGSCAICLDEWSKGDVAAEMPCKHKFHSKCVEEWLGRHATCPMCRYEMPVEEVEEEKKIGIWIGFSINAGDRRN”: the protein production entry was “failed”.

Consider “MSSERDLVNFLGDFSMDVAKAVIAGGVATAIGSLASFACVSFGFPVILVGGAILLTGIVCTVVLNEIDAQCHLSEKLKYAIRDGLKRQQELDKWKRENMTPFMYVLNTPPVI”, for which the protein production entry is “failed”.

Consider “MSSEYKKGIFLALGAYILWGILPIYWRLIDEIGAFEILAFRIIFSVIFMIFVLIIGKNQRNAFFRDVNQLVSHPVQLIAIIVAGYVITVNWGTFIWAVSNGHVLQSSLGYYINPLVSIVLALIFLKERFNKFEWLAIIFALVGVLYMTIKIGEFPFISLLLAFSFGIYGLLKKIVHIDAISSITIECIVTAPAGLIYVIYLWQQQHITFGLNISSFWLLFSGAITAIPLILFSAGAKRIPLSLTGFIQYVGPTIMFILGIFVFKEPFNTDQLITFIFIWIGIVLYSISQYVQIKKNPVVK”, for which the protein production entry is listed as “failed”.

With “MSSHNMTEVLVGGAVLAAALTFGIYASQATGLSRGTGGYELAASFRSLEGVTVGTDVRLAGVKIGTVTGVDLNPESYRADTRFTVSEGIQIPDDSAAVISSEGLLGGNFLEIMPGGSAFYFEPGDVIDDTQGAVSLISLLVKFVAGDGSGELEHHHHHH”, the protein production entry is “not failed”.

Turning to “MSSKMVKSSEIVGKLNLRAHQEGGFFAETFRDSSVFLSTSQLPPTFKVDRAVSTSIYFLLPSGSVSRLHRIPMAETWHFYLGEPLTVVELYDDGKLKFTCLGPDLFEGDQKPQYTVPPNVWFGSFPTKDVHFSQDGALLKAEARDSENHFSLVGCTCAPAFQFEDFELAKRSDLLSRFPQHESLITMLSYPE”, the protein production entry is given as “failed”.

Turning to “MSSKPLYTILTVFNPIFIYFTKRDNLHTLRFKKDRAIKISEELFPDELCERCGRCCILHAYKTEDGIKTIYCEHLDPETKLCKVYKDRFKHRCLTVMEGILAGVFPKDCPYVKNLKNYEEPWFYRHLRDLEHHHHHH”, the protein production entry is “failed”.

For the sequence “MSSKRPPAPPPPIPGFKYISLLGSGGFSDVYLYEQDRPRRKVAVKVLLSDLKTEGARRRFESEANLMAQLSSHPYIVTIFEAEITETGHSYLAMEYCSRPSLDVRYRRQRFSVDEVLAVGIQVASAVETAHRAGIVHRDIKPANILVTDYNRPALTDFGISGTIGADTEDDAGMSIPWSPPEQFRGGAVDGVPVDIWALGATLYTLLAGRSPFVLPGQDNSQRELISRITNSPLPRLGRADVPESLELVLATSMAKSPESRYSSAHAFALALQRIQAELNLSVTPFEVLEEPGHGDDQHPDDNFEETRVRSIASIDPDASGTATTGSAPTFPARTFPTTATGASGQPTQPQSLPTSRPQPTNPPQTVQSHAGSSAPPQFHAPAPGSYTAPGSYTAPGTYTAPGTYRASGSHNATAEPDTAESTVLRGWQPSRPQDDLGATVSRSNSPAGASPATREDARPADHSKRNLWLAATGAAVLVVAIVVGVVLGAQAQPKVVPTEAASKPPADALGDGSVPDVEGLIGVKDPEKPDFADFRWTNPQPQSGDMYMWRYRTALIPEGDYEAVTEPHARPYFGGEKQLCIQVIIVRRDGTSSPGDTGSIACVDQ”, the protein production result is “failed”.

For “MSSLFVVGIGPGSNDLMTPQASLAIERSEYVIGFSLYVSFIKEKFPNKIYISNGMQGEIERAKKAIELARSGHNVSIISSGDAGIYGIAGAVFEILSTLEDNMPEVSVVPGIS”, the protein production result is “not failed”.

On to “MSSLILSTFAERLTELGQRTTFLELPPYLDRSFPNSNSGKVVQVGKYLPPEVKHKAVDLLREYKDV”, for which the protein production entry is on record as “failed”.

For “MSSLKGHPKGLYLIFATSTAERFSYYGMRAIFILFLTQALLFDKEAAASIYGSYTGLVYLTPLIGGYIADKYWGIRRSVFWGAVMMAVGQFLMFMSASSLNNTDLAHWLMYGGLGFMILGNGCFKPTVSSLVGQLYEPGDKRLDAAYTIFYMGVNVGSFAAPLICGFLGDTGNPQDFKWGFLASGIMTLFTVVLFETQKNKYLFSPSGEPIGIVPDARREKKEDKAEHISHPKMDKRTKVRNIIIITALTVALIAFFSYAFSDDWISVGIFTACIVFPVLILLDGSLTKVERSRIFVIYIVAFFVIFFWAAYEQAGASLTLFASEQTDRSIFGWEMPASWFQSFNPLFVVILAYIMPGIWGFLNKRNMEPASPTKQAIGLLLLSLGYLFICFGVKDAIPGVKVSMIWLTGLYFIHTMGEIALSPIGLSMVNKLSPLRFASLMMGIWYLSTATANKFAGMLSGLYPEDGKVKSILGYQIATMYDFFMLFVIMSGVASLILFLLSKKLQKMMHGVE”, the protein production result is “failed”.

In the case of “MSSNPLRFFVLTIFPHIISCYSEYGIVKQAIKKGKVEVYPIDLREFAPKGQVDDVPYGGLPGMVLKPEPIYEAYDYVVENYGKPFVLITEPWGEKLNQKLVNELSKKERIMIICGRYEGVDERVKKIVDMEISLGDFILSGGEIVALAVIDAVSRVLPGVLSEPQSIQEDSFQNRWLGYPVYTRPREYRGMKVPEELLSGHHKLIELWKLWHRIENTVKKRPDLIPKDLTELEKDILNSILSGKSFKEWLKEHKHLL”, the protein production entry was “not failed”.

On to “MSSNVPADMINLRLILVSGKTKEFLFSPNDSASDIAKHVYDNWPMDWEEEQVSSPNILRLIYQGRFLHGNVTLGALKLPFGKTTVMHLVARETLPEPNSQGQRNR”, for which the protein production result was “failed”.

Consider “MSSPNPEDVPRRPEPEPSSSNKKKKKRKWLRQEASIQALTRAGHGALQAGQNHEALNNFQRAFLLASKAPQTRDTPVLQACAFNLGAAYVETGDPARGLELLLRAHPEEKAQGRRHGDQCFNVALAYHALGELPQALAWYHRALGHYQPQGDQGEAWAKMGACYQALGQPELAAHCLQEASQAYAQERQLRAAALALGAAAGCMLKSGRHRVGEVVQVLEKSRRLAERSTERRLLGHLYNDLGLGYSQLQLFPLAVEAFLQALPLCWVPGEQATVLRNLGMAHNALGNYQEAREFHQKAADLHGSVGQRWEQGRSFGSLAFALSQLGDHKAARDNYLHALQAARDSGDMKGQWQACEGLGAAAARLGQYDQALKYYKEALAQCQKEPDSVRERLVAKLADTVRTRLAQVGLVQTHTLTSAPGRLQAPGGASQAEGTPAKAGSSTAGVQHRSSSGWEDEEFEEGHQKKKEERSANVPVRAGPGRPELCFLPGTVNHSHHLASSCPTFTKHTPCRGTVLGKASIYSPGPRAHLPFVGPGPPRAEYPSILVPNGPQANRSSRWPRESLSRSRQRRPMESGICTIV”, for which the protein production entry is given as “failed”.

In the case of “MSSRKIGLNLVVIVALAALFTGIWALYNRPVSVPDWPERISGFSFSPFRLNQNPQSGRYPSAEQMRTDLELVARHTHSIRTYSVQGALGDIPALAEAFGLRVSLGIWLGPDLASNEAEIARAIRIANESPSVVRVIVGNEALFRREVTAEQLIAYLDRVRAAVKVPVTTAEQWHVYREHPELAQHVDLIAAHVLPYWEATPVADAVDFVLERARELKAAFPRKPLLLAEVGWPSNGRMRGSAEATPADQAIYLRRLTNALNGEGYSYFVIEAFDQPWKVSAEGSVGAYWGVYNADRKAKFNFTGPVVPIPKWRALAIASAVLAVLAFTLLLIDSSSLRQRGRTFLAVVSFACASVLVWIAYDYSQQYSTWFSLTVGALLGVGALGVVIVLFTEAHELAEAVWTRKRRRPFLPITAARAYRPKVSIHVPCYNEPPELLKQTLDALARLDYPDYEVLVIDNNTRDPAVWQPVEAHCARLGERFRFFHVAPLEGFKAGALNFALGHVAADVEVVAVIDADYCVDPDWLRHMVPHFGDPRIAVVQSPQDYRDQHESAFKRLCYAEYKGFFHIGMVTRNDRDAIIEHGTMTMIRRSVLDELRWPEWCITEDAELGLRVFEKGLSAAYFERSYGKGVMPDTFIDFKKQRFRWAYGAIQIMKRHTDALLRGRGPDGSRLTRGQRYHFVAGWLPWIADGLNIFFTLGALLWSAAMIIVPKRVDPPLLIFAILPLALFVFKVGKILFLYRRTVGVDLRDSFFAALAGLSLSHTIAKAVLYGFVTRGIPFFRTPKMRSSHGLLVALAEAREEVFVMLLLWGAAAGIVAVQGVPSRDLLIWVAMLLVQSLPYLAALVMALLSSLPKPREELAGGAEQIGG”, the protein production entry is recorded as “failed”.

For “MSSRPQREKSMTALTQHAPVLEIYQDIANLTSRMLAAANASNWDLVLNHGQEYVCLVERLRELEPGEPLDEAARGMKFDLLVRILENDAAVRDLALPQLARLSDLLGRMKRQQSLLATYSGKANGT”, the protein production result is given as “not failed”.

With “MSSRTVLAPGNDRNSDTHGTLGSGRSSDKGPSWSSRSLGARCRNSIASCPEEQPHVGNYRLLRTIGKGNFAKVKLARHILTGREVAIKIIDKTQLNPSSLQKLFREVRIMKGLNHPNIVKLFEVIETEKTLYLVMEYASAGEVFDYLVSHGRMKEKEARAKFRQIVSAVHYCHQKNIVHRDLKAENLLLDAEANIKIADFGFSNEFTLGSKLDTFCGSPPYAAPELFQGKKYDGPEVDIWSLGVILYTLVSGSLPFDGHNLKELRERVLRGKYRVPFYMSTDCESILRRFLVLNPAKRCTLEQIMKDKWINIGYEGEELKPYTEPEEDFGDTKRIEVMVGMGYTREEIKESLTSQKYNEVTATYLLLGRKTEEGGDRGAPGLALARVRAP”, the protein production result was “failed”.

Regarding “MSSRWEGIDEFVAVAESGQFTAAAERLGVSSSHISRQIARLEDRLQTRLLYRSTRRVTLSEAGQTFLQHCQRLQDGREEALRAMGDLASEPKGLLRMTCAVAYGERFIVPLVTRFMALYPQLRVDVELSNHTLDLLHEGMDLAIRLGRLADSRLVATRLAPRRMYLCVSPAYLERYGRPHSLSELARHNCLVGSSDLWALQQDGREISQRVQGNWRCNSGQAVLDAALQGIGLCQLPDYYVLEHLNSGALVSLLEAHQPPNTAVWALYPQQRHLSPKVRRLVDYLKEGLAGLPEYRFG”, the protein production entry is on record as “failed”.

“MSSSEIQTKNSEVQVKEMVAHKWDLASETFDTHAGHGIQTQKERDAWKRAFLKVFPGKSLKILDVGCGTGELSLLFAEMGHEVAGIDISGQMLKIAKAKAEALGADITFREGDAENPPFDTSSYDIVFSRHLLWTLPNPKVAVENWNRILRKNGKVVIVDGVWDSGTLGSRARKNAGALLTLLLERKDPRKGHSDYSDELKAQLPHFGGAPLEKVNEYLSNSGFGNIQIFDLKEVRDAQKEKMPLGERVVRSYQYYLICGRK”: the protein production entry is listed as “failed”.
